Assay results: patent US8962795B2, “Factor H binding peptides and uses thereof” (The Trustees of the University of Pennsylvania, priority 2010, dated 2015)
Positions of bridges follow the written chain, without caps; N, C: chain ends. No end group written: not given here.

Tests used:
[1] = target: T1, factor H (Homo sapiens, UniProt P08603); experiment: Monoclonal phage ELISA, binding of phage clones to factor H (binding area localisation); details: SCR5-18 attributed in absence of stable binding to N- or C-terminus of factor H
T1 construct: Human factor H was purified from normal human serum (NHS) by 5-12% PEG precipitation; from tissue; host or cells: normal human serum (NHS)
Procedure: (§1) Microtiter wells were coated overnight with either factor H or BSA at 5 μg/mL in PBS at 4° C., and saturated with 5% non-fat milk in PBST for 1 h. Completely separated individual phage plaques from the third round of screening were picked and amplified. Phage particles of each amplified individual phage plaque were added to both factor H- and BSA-coated wells in parallel and allowed to bind at RT for 1 h. After six washes with PBST, bound phages were detected with HRP-conjugated anti-M13 monoclonal antibody (GE Healthcare), using ABTS (Roche) for color development. Clones that bound to factor H but not to BSA were considered positive; single-stranded DNA from positive clones was prepared using an M13 kit (Qiagen, Valencia, Calif.) and sequenced by the DNA sequencing facility of the University of Pennsylvania.
(§2) To localize the binding sites on factor H of the positive clones, we further tested each clone by monoclonal phage ELISA for binding to factor H and its N- and C-terminal fragments, i.e. fH1-4 and fH19-20.

[2] = target: T2, fH19-20 (Homo sapiens, UniProt P08603); experiment: Monoclonal phage ELISA, binding of phage clones to fH19-20
T2 sequence (P08603 1107-1231): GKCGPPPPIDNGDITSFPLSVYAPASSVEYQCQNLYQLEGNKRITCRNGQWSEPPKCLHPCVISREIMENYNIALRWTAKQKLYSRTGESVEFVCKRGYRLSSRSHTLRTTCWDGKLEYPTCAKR
Procedure: as §1, §2

[3] = system: Sheep erythrocytes; experiment: Hemolytic assay (factor H cell-surface binding); type: cell-based; details: for effect on hemolytic assay: peptide expressed as fusion protein with phage PIII domain, not shown
Procedure: (§3) To determine whether the binding of the 5C6 peptide interferes with the regulatory activity and cell-surface binding capacity of factor H, we performed factor H cofactor activity assays using purified C3b, factor H and factor I, as well as hemolytic assays, both which were performed in the presence of different concentrations of the 5C6 peptide. The hemolysis assay experiments were repeated at least three times using lepirudin plasma from different blood donors.
Hemolytic assays were performed to determine whether the peptide altered factor H cell-surface binding activity. Sheep erythrocytes (Cocalico Biological Inc., Reamstown, Pa.) were washed with VBS containing 5 mM Mg^2+/EGTA (VBS-Mg^2+/EGTA) until the supernatant was clear. The assay was titrated by lysing erythrocytes in serial dilution with water in a final volume of 300 μl. The OD405 of the supernatants was measured, and the amount of the erythrocytes yielding an OD405 of ˜1 was used in the assay. Serial dilutions of the 5C6 peptide or monoclonal antibody MH10 (which binds fH19-20 and inhibits factor H cell surface binding) with the determined amount of sheep erythrocytes and lepirudin plasma diluted 1:10 in VBS-Mg^2+/EGTA in a final volume of 300 μL were incubated at 37° C. for 1 h in a shaking water bath. After centrifugation the OD405 of the supernatants was measured, and the OD value was used to represent the cell lysis.

[4] = target: T1, factor H; experiment: Peptide-phage competition assay; type: binding; details: serially diluted synthetic peptide; coated factor H
Procedure: (§4) Two approaches were used to evaluate the binding of synthetic peptides to factor H. First, we used peptide-phage competition assays, in which serially diluted synthetic peptide was added to its parent phage at the step of phage binding to coated factor H. The rest of the steps were performed as described above for monoclonal phage ELISA. Second, ELISA experiments were used to evaluate the binding of factor H to the immobilized peptide. Microtiter plates were coated with streptavidin (New England Biolabs) at 10 μg/ml in PBS at 4° C. overnight, and saturated with 2% BSA in PBS. After washing, either the biotinylated 5C6 peptide or a biotinylated control peptide (linear compstatin; IAVVQDWGHHRAT; SEQ ID NO:10) was added at 10 μg/ml and allowed to bind at RT for 30 min. The wells were washed again, and factor H serially diluted in PBS, starting with 2.5 μg/ml, was added. After 1 h of binding, the plates were washed, and bound factor H was detected with goat anti-human factor H polyclonal antibody (Quidel, San Diego, Calif.), followed by HRP-conjugated rabbit anti-goat IgG (Bio-Rad). […]

[5] = target: T1, factor H; experiment: ELISA, binding of purified factor H to immobilized biotinylated peptide; details: biotinylated peptide captured by coated streptavidin, polyclonal antibody detection
Procedure: as §4

[6] = target: T1, factor H; experiment: SPR, factor H on surface-bound peptide; type: binding; details: for SPR binding of factor H to immobilized peptide: biotinylated peptide on streptavidin chip, factor H 100 nM
Procedure: (§5) The binding of factor H with surface-bound 5C6 peptide was further characterized using surface plasmon resonance (SPR) on a ProteOn XPR36 instrument (Bio-Rad Inc., Hercules, Calif.) using PBST (10 mM sodium phosphate, 150 mM NaCl, 0.005% Tween 20) as running buffer. Streptavidin (50 μg/ml in 10 mM sodium acetate pH 5.0) was immobilized on a GLC sensor chip at 30° C. using amine coupling. The biotinylated 5C6 peptide and a biotinylated control peptide (linear compstatin; see above) were captured on separate streptavidin-coated channels to a density of ˜200 resonance units (RU). Purified factor H (Complement Technologies, Tyler, Tex.) or recombinant fragments fH1-4 and fH19-20 were injected at a concentration of 100 nM for 2 rain at a flow rate of 25 μl/min with a dissociation phase of 6 min. A single injection of 2 M NaCl for 30 s was used to regenerate the surface between injections. Data were processed using ProteOn Manager software by subtracting the signals from interspots and a blank streptavidin channel. In order to estimate the apparent binding affinity, a twofold dilution series of factor H (0.24-500 nM) was injected using the same protocol and fitted to various kinetic models using ProteOn Manager. In order to exclude sensor chip matrix-specific surface binding, the same experiment was repeated on Biacore 3000 instrument (GE Healthcare) using a SA chip under the same conditions as described above.

[7] = target: T2, fH19-20; experiment: SPR, fH19-20 fragment on surface-bound peptide; type: binding; details: fragment 100 nM
Procedure: as §5, with “In order to exclude sensor chip matrix-specific surface binding, the same experiment was repeated on Biacore 3000 instrument (GE Healthcare) using a SA chip under the same conditions as described above.” left out

[8] = target: T3, fH1-4 (Homo sapiens, UniProt P08603); experiment: SPR, fH1-4 fragment on surface-bound peptide; type: binding; details: fragment 100 nM
T3 construct: made in house
Procedure: as §5, with “In order to exclude sensor chip matrix-specific surface binding, the same experiment was repeated on Biacore 3000 instrument (GE Healthcare) using a SA chip under the same conditions as described above.” left out

[9] = target: T4, factor H cofactor activity (Homo sapiens, UniProt P08603); experiment: Factor H cofactor activity assay (factor I-mediated cleavage of C3b); type: biochemical; details: for effect on cofactor assay: peptide expressed as fusion protein with phage PIII domain, not shown
T4 construct: Human factor H was purified from normal human serum (NHS) by 5-12% PEG precipitation; from tissue; host or cells: normal human serum (factor H, C3); factor I from unnamed 'other sources'
Procedure: as §3
The factor H cofactor activity assay was performed according to known methods. In brief, 1.14 μM C3b, 16 nM factor I, and 72 nM factor H were incubated with various amounts of the 5C6 peptide (0.4, 4, and 40 μM, respectively) in PBS at 37° C. for 1 hr in a final volume of 20 μl. The reaction was terminated by adding SDS-PAGE loading buffer, and the samples were analyzed by 8% SDS-PAGE under reducing conditions, followed by Coomassie blue staining.

[10] = system: AP complement activation (surface-bound activated C3); experiment: Inhibition of biomaterial-induced AP activation by immobilized peptide (surface-bound activated C3); type: biochemical, human
Procedure: Polystyrene microtiter wells, which served as a model biomaterial, were coated overnight with streptavidin (10 μg/ml in PBS) at 4° C. After washing, the biotinylated 5C6 peptide and the control peptide (10 μg/ml in PBS) were added to the wells and incubated at RT for 30 min. The wells were again washed and serially diluted lepirudin plasma in VBS-Mg^2+/EGTA was added and incubated at RT for 1 h. In some experiments intended to monitor the inhibition of AP by immobilized peptide on a HSA monolayer, the washed wells were saturated with 2% HSA in PBS for 1 h, prior to the addition of plasma. In both series of experiments, the wells were then washed, and the binding sites were saturated with 2% BSA in PBS for 1 h. Bound fragments of activated C3 were detected with an HRP-conjugated goat anti-human C3 polyclonal antibody (Cappel, Aurora, Ohio). In parallel, captured factor H from serum was detected with goat anti-human factor H polyclonal antibody followed by HRP-conjugated rabbit anti-goat IgG in duplicate wells as described above.

[11] = target: T1, factor H; experiment: Capture of factor H from plasma by immobilized peptide; type: binding; details: vs control peptide
Procedure: as §4, with “After washing, either the biotinylated 5C6 peptide or a biotinylated control peptide (linear compstatin; IAVVQDWGHHRAT; SEQ ID NO:10) was added at 10 μg/ml and allowed to bind at RT for 30 min. The wells were washed again, and factor H serially diluted in PBS, starting with 2.5 μg/ml, was added.” left out
Polystyrene microtiter wells, which served as a model biomaterial, were coated overnight with streptavidin (10 μg/ml in PBS) at 4° C. […] Bound fragments of activated C3 were detected with an HRP-conjugated goat anti-human C3 polyclonal antibody (Cappel, Aurora, Ohio). In parallel, captured factor H from serum was detected with goat anti-human factor H polyclonal antibody followed by HRP-conjugated rabbit anti-goat IgG in duplicate wells as described above.

[12] = target: T1, factor H; experiment: Factor H concentration in plasma after incubation on peptide-coated surface; details: data not shown
[13] = target: T3, fH1-4; experiment: Monoclonal phage ELISA, binding of phage clones to fH1-4
Procedure: as §1, §2

T1 sequence (P08603 19-1231): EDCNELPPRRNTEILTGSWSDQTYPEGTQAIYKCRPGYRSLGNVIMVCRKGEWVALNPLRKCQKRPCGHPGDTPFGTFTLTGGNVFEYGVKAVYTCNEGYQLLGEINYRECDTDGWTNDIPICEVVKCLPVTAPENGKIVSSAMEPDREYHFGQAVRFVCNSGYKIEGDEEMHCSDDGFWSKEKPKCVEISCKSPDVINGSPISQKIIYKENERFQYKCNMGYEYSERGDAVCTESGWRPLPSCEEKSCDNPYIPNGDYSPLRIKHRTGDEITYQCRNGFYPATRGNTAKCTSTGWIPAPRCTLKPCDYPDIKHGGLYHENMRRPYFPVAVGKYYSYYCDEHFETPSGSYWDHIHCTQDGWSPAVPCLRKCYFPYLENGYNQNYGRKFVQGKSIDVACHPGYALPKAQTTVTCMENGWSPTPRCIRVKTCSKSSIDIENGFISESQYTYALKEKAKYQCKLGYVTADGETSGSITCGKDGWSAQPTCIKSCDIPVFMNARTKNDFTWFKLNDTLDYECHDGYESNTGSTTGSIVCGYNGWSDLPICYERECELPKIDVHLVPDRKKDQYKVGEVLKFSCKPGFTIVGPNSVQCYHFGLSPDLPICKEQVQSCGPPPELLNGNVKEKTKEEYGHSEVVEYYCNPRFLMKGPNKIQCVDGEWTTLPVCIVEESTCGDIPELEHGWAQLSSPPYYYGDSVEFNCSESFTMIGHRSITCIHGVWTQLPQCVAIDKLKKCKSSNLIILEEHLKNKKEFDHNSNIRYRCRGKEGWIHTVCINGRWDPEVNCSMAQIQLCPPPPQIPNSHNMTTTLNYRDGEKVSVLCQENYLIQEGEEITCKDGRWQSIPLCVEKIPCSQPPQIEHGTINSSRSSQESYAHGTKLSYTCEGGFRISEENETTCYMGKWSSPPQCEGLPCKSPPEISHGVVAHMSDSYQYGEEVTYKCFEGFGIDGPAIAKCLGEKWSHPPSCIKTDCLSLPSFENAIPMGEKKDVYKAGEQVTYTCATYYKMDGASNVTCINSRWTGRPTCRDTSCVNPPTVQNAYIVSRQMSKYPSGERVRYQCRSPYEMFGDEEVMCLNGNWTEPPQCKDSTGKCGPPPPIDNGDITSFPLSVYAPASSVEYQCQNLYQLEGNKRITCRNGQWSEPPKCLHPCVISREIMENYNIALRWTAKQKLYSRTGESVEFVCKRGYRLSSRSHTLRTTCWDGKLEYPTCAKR
T4 sequence (P08603 19-1231): as above
T3 sequence (P08603 19-264): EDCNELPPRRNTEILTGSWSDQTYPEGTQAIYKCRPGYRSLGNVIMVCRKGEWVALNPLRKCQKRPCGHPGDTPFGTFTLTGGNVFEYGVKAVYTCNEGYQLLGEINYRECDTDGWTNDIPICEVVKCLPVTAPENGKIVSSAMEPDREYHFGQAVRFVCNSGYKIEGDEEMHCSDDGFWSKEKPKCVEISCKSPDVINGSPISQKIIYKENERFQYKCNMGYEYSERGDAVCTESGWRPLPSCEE

## ASPSWCSYSHWCRH [5D1]
[1]
  Binding area on factor H: SCR5-18

## ASSCMYSYWCTH [5-2B2]
[1]
  Binding area on factor H: SCR5-18

## ASSFKCDYSHWCLH [5E10]
[1]
  Binding area on factor H: SCR5-18

## ASSGMCFTKKTVLC [4A1]
[1]
  Binding area on factor H: SCR19-20
[2]
  binding of phage clone to fH19-20: bind to the C-terminal two SCR of factor H
[3]
  effect on hemolytic assay: affected

## ASSNVCSYSYWCAH [5G11]
[1]
  Binding area on factor H: SCR5-18

## ASSSRCTYDHWCSH (disulfide 6-12 (inferred); not fully specified; also: biotinylated) [5C6, used biotinylated when immobilized]
[1]
  Binding area on factor H: SCR5-18
[4]
  inhibition of binding of the other class 3 phages to factor H by 5C6 peptide: strongly inhibited
  inhibition of parent phage binding to factor H by synthetic peptide: inhibited its parent phages from binding to factor H in a dose-dependent manner
[5]
  binding signal for factor H on immobilized peptide (ELISA): strong binding signal
[6]
  SPR binding of factor H to immobilized peptide: high binding activity and stability
[6]; dilution series of factor H 0.24-500 nM, deviation from single-site model, apparent
  SPR apparent binding affinity for factor H: concentration-dependent binding with high affinity
[7]
  SPR binding of fH19-20 fragment to immobilized peptide: a significant SPR response could also be detected for the fH19-20 fragment, this interaction was not stable
[8]
  SPR binding of fH1-4 fragment to immobilized peptide: no binding
[9]
  effect on cofactor assay: no such effect
[9]; synthetic peptide up to 40 μM, 550-fold excess over factor H (72 nM)
  effect on factor H cofactor activity: did not inhibit
[3]; 10-fold diluted lepirudin plasma, peptide up to 40 μM
  lysis of sheep erythrocytes: No lysis
[3]
  effect on hemolytic assay: no such effect
[10]; polystyrene with HSA monolayer, lepirudin plasma in VBS-Mg2+/EGTA, vs control peptide
  complement activation on peptide-immobilized surface: substantially inhibited
[10]; polystyrene without HSA pre-saturation, plasma
  complement activation on peptide-immobilized surface: strongly inhibited
[11]; polystyrene with HSA monolayer
  factor H capture from plasma by immobilized peptide: pronounced factor H capture
[11]; polystyrene without HSA pre-saturation
  factor H capture from plasma by immobilized peptide: captured more factor H
[12]
  factor H concentration in plasma incubated on peptide-coated surface: no significant decline

## ASSYDVGYSHDCRF [5-2C6]
[1]
  Binding area on factor H: SCR1-4
[13]
  binding of phage clone to fH1-4: bound to the N-terminal regulatory region of factor H
[9]
  effect on cofactor assay: affected

## IAVVQDWGHHRAT [Control Peptide (LC), reference compound]
[5]
  binding signal for factor H on immobilized peptide (ELISA): not
[6]
  SPR binding of factor H to immobilized peptide: no significant binding
